{"source": "IntAct's records for PubMed 37100772", "parents": {"B1": {"name": "Nucleoprotein (Zaire ebolavirus (strain Mayinga-76)), P18272 (parent)", "chain": "MDSRPQKIWMAPSLTESDMDYHKILTAGLSVQQGIVRQRVIPVYQVNNLEEICQLIIQAFEAGVDFQESADSFLLMLCLHHAYQGDYKLFLESGAVKYLEGHGFRFEVKKRDGVKRLEELLPAVSSGKNIKRTLAAMPEEETTEANAGQFLSFASLFLPKLVVGEKACLEKVQRQIQVHAEQGLIQYPTAWQSVGHMMVIFRLMRTNFLIKFLLIHQGMHMVAGHDANDAVISNSVAQARFSGLLIVKTVLDHILQKTERGVRLHPLARTAKVKNEVNSFKAALSSLAKHGEYAPFARLLNLSGVNNLEHGLFPQLSAIALGVATAHGSTLAGVNVGEQYQQLREAATEAEKQLQQYAESRELDHLGLDDQEKKILMNFHQKKNEISFQQTNAMVTLRKERLAKLTEAITAASLPKTSGHYDDDDDIPFPGPINDDDNPGHQDDDPTDSQDTTIPDVVVDPDDGSYGEYQSYSENGMNAPDDLVLFDLDEDDEDTKPVPNRSTKGGQQKNSQKGQHIEGRQTQSRPIQNVPGPHRTIHHASAPLTDNDRRNEPSGSTSPRMLTPINEEADPLDDADDETSSLPPLESDDEEQDRDGTSNRTPTVAPPAPVYRDHSEKKELPQDEQQDQDHTQEARNQDSDNTQSEHSFEEMYRHILRSQGPFDAVLYYHMMKDEPVVFSTSDGKEYTYPDSLEEEYPPWLTEKEAMNEENRFVTLDGQQFYWPVMNHKNKFMAILQHHQ"}, "B2": {"name": "Nucleoprotein (Zaire ebolavirus (strain Mayinga-76)), P18272 (parent)", "chain": "B1 chain", "partner": "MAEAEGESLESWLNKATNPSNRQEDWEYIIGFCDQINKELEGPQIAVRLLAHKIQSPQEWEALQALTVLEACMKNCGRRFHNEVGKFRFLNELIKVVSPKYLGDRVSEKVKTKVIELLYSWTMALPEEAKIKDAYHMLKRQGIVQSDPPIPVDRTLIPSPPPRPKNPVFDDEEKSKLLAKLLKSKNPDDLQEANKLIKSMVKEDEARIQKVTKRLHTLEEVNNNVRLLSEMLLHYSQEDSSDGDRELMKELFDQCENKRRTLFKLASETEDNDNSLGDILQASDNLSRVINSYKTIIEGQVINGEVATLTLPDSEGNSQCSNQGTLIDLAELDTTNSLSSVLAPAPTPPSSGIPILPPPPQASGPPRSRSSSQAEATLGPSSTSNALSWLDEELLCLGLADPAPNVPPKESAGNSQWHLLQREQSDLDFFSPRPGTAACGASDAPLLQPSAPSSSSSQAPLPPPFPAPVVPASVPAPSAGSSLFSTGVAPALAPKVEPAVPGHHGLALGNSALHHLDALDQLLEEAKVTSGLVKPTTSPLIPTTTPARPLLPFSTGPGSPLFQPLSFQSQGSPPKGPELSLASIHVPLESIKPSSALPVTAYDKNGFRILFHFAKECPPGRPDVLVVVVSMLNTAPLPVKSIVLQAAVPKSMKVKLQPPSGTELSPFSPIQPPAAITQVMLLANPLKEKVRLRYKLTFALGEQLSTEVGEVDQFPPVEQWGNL"}}}
{"variants_of": "B1", "conditions": "with ap2m1_human AP2M1, Q96CW1"}
{"variant": "Y340A;L343A", "effect of a mutation on the interaction": "with no effect"}
{"variants_of": "B2", "conditions": "with gga3_human GGA3, Q9NZ52"}
{"variant": "Y469A", "effect of a mutation on the interaction": "disrupting interaction strength"}
